Data on one sequence can be found in article PMC3961693.

For this data set, the target named is IL-6 (human) (UniProt P05231). The note with it: 32 nt; six 2'-O-methyl; eight Bn-dU; one Pe-dU; one Nap-dU (position 12); Bn-dU at 7, 8, 14, 15, 22, 23, 27, 30 named in text; binding assay method and buffer not given in the ….
Sequence of IL-6 (human) (P05231 30-212): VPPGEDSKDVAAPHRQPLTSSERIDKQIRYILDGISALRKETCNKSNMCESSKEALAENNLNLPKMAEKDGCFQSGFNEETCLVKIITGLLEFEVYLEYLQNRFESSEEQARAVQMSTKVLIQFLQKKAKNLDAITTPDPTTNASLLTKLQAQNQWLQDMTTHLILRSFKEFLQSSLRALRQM

By Kd is commonly meant a measure of binding affinity in units of concentration. Higher therefore signals lower affinity. For the sequence “GGCAGGUUUGGUAUUAACACGUUAAGUCGUGG [SL1025]”, the dissociation constant (Kd) is 0.2 nM.
